Results taken from publication PMC4749091 (The Journal of Experimental Medicine, 2016).

Target: T1, human CD112-Fc fusion protein (human, UniProt Q92692 32-360)
T1 sequence (looked up): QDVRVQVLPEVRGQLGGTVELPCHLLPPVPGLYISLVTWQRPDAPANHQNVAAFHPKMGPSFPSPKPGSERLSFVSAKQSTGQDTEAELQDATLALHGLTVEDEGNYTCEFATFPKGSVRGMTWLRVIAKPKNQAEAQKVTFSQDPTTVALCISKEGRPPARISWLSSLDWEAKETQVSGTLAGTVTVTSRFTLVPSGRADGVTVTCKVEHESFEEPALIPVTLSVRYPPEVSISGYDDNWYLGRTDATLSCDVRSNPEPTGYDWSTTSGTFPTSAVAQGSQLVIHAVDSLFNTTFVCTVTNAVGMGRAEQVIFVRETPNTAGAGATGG
Experiment: competition by flow cytometry on protein-coated beads

B1: human CD226-Fc fusion protein (Fc fusion, UniProt Q15762 19-254, looked up)
chain: EEVLWHTSVPFAENMSLECVYPSMGILTQVEWFKIGTQQDSIAIFSPTHGMVIRKPYAERVYFLNSTMASNNMTLFFRNASEDDVGYYSCSLYTYPQGTWQKVIQVVQSDSFEAAVPSNSHIVSEPGKNVTLTCQPQMTWPVQAVRWEKIQPRQIDLLTYCNLVHGRNFTSKFPRQIVSNCSHGRWSVIVIPDVTVSDSGLYRCYLQASAGENETFVMRLTVAEGKTDNQYTLFVA
binding result: binds
